Patent US20230391852A1 (US Dept. of Health and Human Services, published 2023)

The binders below were run against SARS-CoV-2 RBD (SARS-CoV-2, UniProt P0DTC2 319-541) (assay: monoclonal VHH phage clone binding screen (FIG. 3A)).

Binder | binding result
NCI-CoV-8A1 (VHH) VHH: QVQLVESGGGSVQAGGSLRLSCAASGFTFSSYFMTWVRQAPGKGLEWVSTINSDGSNTYYADSVKGRFTISRDNAKNTLYLQMNSLKPEDTAMYYCNFRRMIGTSNLNYWGQGTQVTVSS | binds
NCI-CoV-1D7 (VHH) VHH: QVKLEESGGGLVQPGGSLKLSCTASGFTFSSYNMSWVRQAPGKGLKWVSMIRSDGSNTYYLDSVKGRFTISRDNAKNTVYLQMNSLEPGDTAVYYCVAGRHATYWGQGTQVTVSS | binds
NCI-CoV-2F5 (VHH) VHH: QVQLVESGGGLVQPGGSLKLSCTASGFTFSSYNMSWVRQAPGKGLKWVSMIRSDGSNTYYLDSVKGRFTISRDNAKNTVYLQMNSLEPGDTAVYYCVAGRHATYWGQGTQVTVSS | binds
NCI-CoV-3E5 (VHH) VHH: EVQLVESGGGLVQPGGSLRLSCAASGFAFSSTRMHWVRQAPGVGLEWVSFIDRTDGGIISYADSVRGRFTISRDNAKNTVYLQMDRLNAEDTAVYYCLKEGPYLDYWDAWGQGTQVTVSS | binds
NCI-CoV-1H8 (VHH) VHH: QVQLVESGGGLVQPGGSLRLSCAASGFTFSSYDMTWVRQAPGKGLEWVAAIYTADGSTYLDDSVKGRFTISQDNAKKTLYLQMTSLKVEDTAKYTCATGVGGSFSNWGRGTQVTVSS | binds
NCI-CoV-2B3 (VHH) VHH: DVQLVESGGSSVQAGGSLRLSCAASGDSYRGNLMGWFRQAPGKAREGVAVIFTPNHNTYAADSVKGRFTISQDKAKNMVYLQMNSLKPEDTAMYYCATGWEGGLILSARAYRYWGQGTQVTVSS | binds
NCI-CoV-2A10 (VHH) VHH: QVQLVESGGGSVQAGGSLRLSCAMSGLRVSNRCMGWFRQAPGKEREGVATICIGDGSTAYADSVKGRFTISQDNAKTTVFLEMNSLKPEDTAMYSCARAVRATAATLDPGNFFYWGQGTQVTVSS | binds

The binders below were run against T1, SARS-CoV-2 S trimer (SARS-CoV-2, UniProt P0DTC2 16-1213) (assay: monoclonal phage ELISA, drawn table of OD450 values).
T1 construct: also called SARS-CoV-2 S protein; S homotrimer protein

Binder | OD450
NCI-CoV-2D4 (VHH) VHH: EVQLVESGGGSVQAGGSLRLSCAASAVTSNTNYVGWLRQVPGKEREGVAGIYYDGGVYYDESVKGRFTISRDNAQNTVFLQMNSLKPEDTAMYYCGAGRGYRYQYGSAWYKPGQYHYWGQGTQVTVSS | 0.58
NCI-CoV-7E5 (VHH) VHH: AVQLVESGGGSVQAGGSLRLSCAASGYTYSSNYMGWFRQAPGKELEWVSGIYSDGRTYYGDSVKGRFTISRDNAKNTVYLQMNSLKPEDTAMYYCAAGSWYNQWGYSMDYWGKGTQVTVSS | 0.6
NCI-CoV-1A7 (VHH) VHH: QVQLVESGGGLVQPGGSLRLSCVASGFTFSSVDMSWVRQDPRKGLEWVSGINSGGGSTSYADSVKGQFTISRDNAKNTLYLEMNNLKPEDTAVYYCATGLAASGVWGQGTQVTVSS | 0.67
NCI-CoV-8A2 (VHH) VHH: AVQLVDSGGGSVQAGGSLRLSCAASGYTYSICTMGWYRQAPGEGLEWVSGINADGSNTHYTDSVKGRFTISRDNAKKTLYLQMNSLKPEDTAIYYCAAHGTYDKYAPCGGFAGTYTYWGQGTQVTVSS | 0.61
NCI-CoV-2F7 (VHH) VHH: QVKLEESGGGSVQSGGSLRLSCTVSRDTNTNINRCMGWFRQAPGKGLETVATINRDGTNTYYTDAVKGRFTISQDNVKNTVYLQMNNLTPEDTGTYICNAMGRGSGSRCDNWDPNYWGQGTQVTVSS | 0.8
NCI-CoV-1B5 (VHH) VHH: DVQLVESGGGSVQAGGSLRLSCTGSRYTYSTYCMGWFRQAPGKEEEAVAIINSGGGEPYYGDSVKGRFTISQDRAKNTVYLQMDGLQPDDTAIYYCVAADSHNSRCYLGRSYVNYWGQGTQVTVSS | 0.67
